Assay results taken from PMC8303780, “Mutational Analysis of Redβ Single Strand Annealing Protein: Roles of the 14 Lysine Residues in DNA Binding and Recombination In Vivo”.
Changes are numbered by the printed parent chain.

T1: Redβ K111A (bacteriophage λ, UniProt P03698 1-261, K111A)
T1 sequence: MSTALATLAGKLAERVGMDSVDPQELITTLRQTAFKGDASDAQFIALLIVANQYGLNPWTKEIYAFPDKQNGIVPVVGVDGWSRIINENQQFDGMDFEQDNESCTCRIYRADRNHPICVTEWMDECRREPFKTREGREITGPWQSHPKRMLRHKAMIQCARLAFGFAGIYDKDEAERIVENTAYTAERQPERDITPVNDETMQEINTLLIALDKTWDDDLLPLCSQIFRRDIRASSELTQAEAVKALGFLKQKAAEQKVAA

T2: Redβ K154A (bacteriophage λ, UniProt P03698 1-261, K154A)
T2 sequence: T1 sequence with A111K, K154A

T3: Redβ K148A (bacteriophage λ, UniProt P03698 1-261, K148A)
T3 sequence: T1 sequence with A111K, K148A

T4: Redβ K132A (bacteriophage λ, UniProt P03698 1-261, K132A)
T4 sequence: T1 sequence with A111K, K132A

T5: Redβ K172A (bacteriophage λ, UniProt P03698 1-261, K172A)
T5 sequence: T1 sequence with A111K, K172A

T6: Redβ K61A (bacteriophage λ, UniProt P03698 1-261, K61A)
T6 sequence: T1 sequence with K61A, A111K

T7: Redβ K69A (bacteriophage λ, UniProt P03698 1-261, K69A)
T7 sequence: T1 sequence with K69A, A111K


How the values were obtained:
Conditions in all cases: protein: recombinant, tags: 6xHis removed by thrombin, residual N-terminal GSH
Redβ K111A = target: T1, Redβ K111A; assay: EMSA; PBS; Anisotropy: 50 mM Tris-HCl pH 7.5, 1 mM DTT, 0.1 mg/mL BSA, 10 nM FAM48, 23 °C (Kd per monomer); gel assay: 10 µM Redβ, 50 µM nt of each oligo, PBS, 37 °C, 1% agarose at 22 °C
Redβ K154A = target: T2, Redβ K154A; assay: as above
Redβ K148A = target: T3, Redβ K148A; assay: as above
Redβ K132A = target: T4, Redβ K132A; assay: as above
Redβ K172A = target: T5, Redβ K172A; assay: as above
Redβ K61A = target: T6, Redβ K61A; assay: as above
Redβ K69A = target: T7, Redβ K69A; assay: EMSA; PBS; enhanced vs WT; Anisotropy: 50 mM Tris-HCl pH 7.5, 1 mM DTT, 0.1 mg/mL BSA, 10 nM FAM48, 23 °C (Kd per monomer); gel assay: 10 µM Redβ, 50 µM nt of each oligo, PBS, 37 °C, 1% agarose at 22 °C

Binder | binding result (Redβ K111A; label: 5'-Cy3) | binding result (Redβ K154A; label: 5'-Cy3) | binding result (Redβ K148A; label: 5'-Cy3) | binding result (Redβ K132A; label: 5'-Cy3) | binding result (Redβ K172A; label: 5'-Cy3) | binding result (Redβ K61A; label: 5'-Cy3) | binding result (Redβ K69A; label: 5'-Cy3) | binding result (Redβ K111A; label: 5'-Cy5) | binding result (Redβ K154A; label: 5'-Cy5) | binding result (Redβ K148A; label: 5'-Cy5) | binding result (Redβ K132A; label: 5'-Cy5) | binding result (Redβ K172A; label: 5'-Cy5) | binding result (Redβ K61A; label: 5'-Cy5) | binding result (Redβ K69A; label: 5'-Cy5)
GCGGATGGCTTAGAGCAGAATCGCCCTGCATAGCTCGATTTTTGCGGATG (ssDNA) [Cy3 50-mer ssDNA] | no binding | no binding | no binding | no binding | no binding | no binding | binds |  |  |  |  |  |  | 
CCATCCGCAAAAATCGAGCTATGCAGGGCGATTCTGCTCTAAGCCATCCG (ssDNA) [Cy5 50-mer ssDNA] |  |  |  |  |  |  |  | no binding | no binding | no binding | no binding | no binding | no binding | binds
